Experimental data reported in patent publication US12145987B2, “Method for depleting cytotoxic T cells using an anti-LAG-3 antibody composition” (Daiichi Sankyo Company, Limited, priority 2017, dated 2024).
Each block holds one molecule with its values, some of them ahead of it.

Legend:
[1] = molecular target: T1, immunoglobulin-like domains of human LAG-3 (Homo sapiens, UniProt P18627); experiment: Identification of epitope: flow cytometry on HEK293T cells expressing human LAG-3 domain deletion constructs; type: binding; conditions: FLAG-tagged 353-525, HEK293T cells, 10 μg/mL
T1 construct: expressed in transfected cells; host or cells: HEK293T cells, pcDNA3.1 plasmids, transient transfection
T1 sequence (P18627 353-525): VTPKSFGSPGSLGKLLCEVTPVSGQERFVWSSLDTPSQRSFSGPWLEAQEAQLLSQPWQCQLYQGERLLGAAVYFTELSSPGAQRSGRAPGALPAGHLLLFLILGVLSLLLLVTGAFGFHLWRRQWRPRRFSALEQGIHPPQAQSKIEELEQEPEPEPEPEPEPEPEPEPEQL
Description: (§1) Based on the fact that the rat anti-LAG-3 antibodies rLA204, rLA212, rLA225, rLA869, and rLA1264 are antibodies developed using a mutant deficient in the 1st and 2nd domains (which will be hereinafter referred to respectively as domains 1 and 2) from the N terminus out of the four immunoglobulin-like domains present in the extracellular region of LAG-3 as an immunogen, in order to reveal which of the remaining 3rd and 4th domains (which will be hereinafter referred to respectively as domains 3 and 4) from the N terminus these antibodies bind to, binding of the obtained rat anti-LAG-3 antibodies to cells expressing domains 3 and 4, or only domain 4, was investigated by flow cytometry.
(§2) Each expression plasmid (cloned into pcDNA3.1) of either domain 3 and onwards (263-525) or domain 4 and onwards (353-525) of human LAG-3 with a FLAG tag sequence (DYKDDDDK) (SEQ ID NO:87) added to the N terminus was introduced into HEK293T cells using Lipofectamine 2000 (manufactured by Life Technologies Corp.), and the cells were cultured for 1 day and then recovered, to investigate the binding activity of the antibodies by flow cytometry according to the method described in Example 1)-4.
(§3) In addition to the two types of constructs in FIG. 5A, expression plasmids were used of domain 2 and onwards (amino acid positions 173-525 of the human LAG-3 amino acid sequence in SEQ ID No: 86, FIG. 101) of human LAG-3 with a FLAG tag sequence (DYKDDDDK) (SEQ ID NO:87) added to the N terminus and the full length of human LAG-3 (both were constructed using pcDNA3.1; the nucleotide sequence encoding the amino acid sequence of human LAG-3 is described in SEQ ID No: 85, FIG. 100).

[2] = system: immunoglobulin-like domains of human LAG-3; experiment: as above; type: binding; conditions: concluded from binding to deletion constructs
Description: as §1, §2, §3

[3] = molecular target: T2, immunoglobulin-like domains of human LAG-3 (Homo sapiens, UniProt P18627); experiment: as above; type: binding; conditions: FLAG-tagged 263-525, HEK293T cells, 10 μg/mL
T2 construct: expressed in transfected cells; host or cells: HEK293T cells, pcDNA3.1 plasmids, transient transfection
T2 sequence (P18627 263-525): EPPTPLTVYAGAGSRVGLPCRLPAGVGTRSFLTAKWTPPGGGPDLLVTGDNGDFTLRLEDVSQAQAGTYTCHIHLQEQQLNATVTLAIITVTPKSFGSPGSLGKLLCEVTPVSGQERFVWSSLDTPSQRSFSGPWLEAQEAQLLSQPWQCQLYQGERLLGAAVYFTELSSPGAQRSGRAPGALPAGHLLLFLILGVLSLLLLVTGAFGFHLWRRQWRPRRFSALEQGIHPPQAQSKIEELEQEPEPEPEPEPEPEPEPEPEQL
Description: as §1, §2, §3

[4] = molecular target: T3, human PHA blasts expressing LAG-3 (Homo sapiens, UniProt P18627); experiment: Binding activity to activated human T cells (PHA blasts) by flow cytometry; conditions: mean fluorescence intensity
T3 construct: To human PBMCs stimulated with 2 μg/mL of PHA (manufactured by Sigma-Aldrich) for three days; endogenous in cells; host or cells: human PBMCs stimulated with PHA for three days (PHA blasts)
T3 sequence (P18627 23-525): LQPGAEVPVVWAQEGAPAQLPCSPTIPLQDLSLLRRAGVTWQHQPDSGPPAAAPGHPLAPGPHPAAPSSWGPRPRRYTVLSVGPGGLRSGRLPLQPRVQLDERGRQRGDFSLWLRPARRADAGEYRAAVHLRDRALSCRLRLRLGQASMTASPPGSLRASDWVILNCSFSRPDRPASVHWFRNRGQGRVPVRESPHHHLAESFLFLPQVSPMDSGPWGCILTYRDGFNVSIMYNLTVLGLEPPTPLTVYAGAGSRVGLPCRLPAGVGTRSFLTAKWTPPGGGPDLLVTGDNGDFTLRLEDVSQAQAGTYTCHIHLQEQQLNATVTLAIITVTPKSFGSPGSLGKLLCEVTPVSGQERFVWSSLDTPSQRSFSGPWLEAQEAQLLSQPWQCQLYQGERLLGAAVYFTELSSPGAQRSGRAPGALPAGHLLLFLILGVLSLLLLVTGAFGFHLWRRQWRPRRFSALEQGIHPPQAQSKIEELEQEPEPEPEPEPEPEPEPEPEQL
Method: It was further confirmed by flow cytometry that the antibody produced by the hybridomas determined to be positive by the Cell-ELISA in Example 1)-3 binds to PHA (phytohemagglutinin) activated human T cells (PHA blasts), a more physiologically relevant cell type expressing LAG-3. To human PBMCs stimulated with 2 μg/mL of PHA (manufactured by Sigma-Aldrich) for three days, was added a hybridoma culture supernatant for suspension, followed by reaction at 4° C. for 30 minutes. After washing with a FACS buffer (PBS, 0.1% BSA, and 0.1% sodium azide), a secondary antibody such as an Anti-Rat IgG PE conjugate (manufactured by Jackson ImmunoResearch Laboratories, Inc.) diluted 200-fold with a FACS buffer comprising a LIVE/DEAD Fixable Dead Cell Stain Kit-near-IR fluorescent reactive dye (manufactured by Invitrogen Corp.) was added thereto for suspension, followed by standing at 4° C. for 30 minutes. After washing with a FACS buffer, the cells were resuspended in PBS containing 1 to 2% paraformaldehyde, followed by detection using a flow cytometer (CantoII: manufactured by Becton, Dickinson and Company or FC500: manufactured by Beckman Coulter Inc.). The data was analyzed using FlowJo (manufactured by Tree Star Inc). After removal of the LIVE/DEAD Fixable Dead Cell Stain Kit-near-IR fluorescent reactive dye-positive dead cells by gating, a histogram of the fluorescence intensity of the living cells was plotted.
The binding activity of the rat anti-human LAG-3 antibodies rLA204, rLA212, rLA225, rLA869, and rLA1264 purified by the method described in Example 1)-7 to activated human T cells was investigated.

B3: rLA1264: anti-human LAG-3 rat monoclonal antibody; heavy chain variable region SEQ ID No: 18, light chain variable region SEQ ID No: 20 (antibody, listed as Rattus norvegicus, V domains shown)
VH: EVQLVESGGGLVQPGRSLKLSCAASGFTFSSYYMAWVRQAPTKGLEWVAYISNGGYSTYYRDSVKGRFTISRENAKSTLYLQMDSLRSEDTATYYCTITDHSGYRFTYWGQGTLVTVSS
VL: DIQMTQSPSLLSASVGDRVTLSCKASQSIYNSLAWYQQKLGEAPKLLIYDANSLQTGIPSRFSGSGSGTDFTLTISSLQPEDVATYFCQKYYSGNTFGAGTKLELKRA
immunoglobulin-like domain of LAG-3 bound (epitope) [2]: domain 3
binding to activated human T cells (PHA blasts) [4]: bound to PHA blasts prepared as in vitro activated human T cells in a concentration-dependent manner

B4: rLA869: anti-human LAG-3 rat monoclonal antibody; heavy chain variable region SEQ ID No: 14, light chain variable region SEQ ID No: 16 (antibody, listed as Rattus norvegicus, V domains shown)
VH: EVQLVESGGGLVQPGRSLKLSCAASGFTYRTYVMAWVRQGPTQGLEWVASISTGGVSTYYRDSVKGRFTISRDNAKNTLYLQMDSLRSEDTATYYCAKDMLNGYNSQGLFDYWGQGVMVTVSS
VL: NIVMTQSPKSMSISVGDRVTMNCRASQNVDNTIAWYQQKPGQSPKLLIYFASDRYTGVPDRFTGGGYGTDFTLTINSVQAEDAAFYYCQRIYNSPLTFGSGTKLEIRRA
immunoglobulin-like domain of LAG-3 bound (epitope) [2]: domain 3
binding to activated human T cells (PHA blasts) [4]: bound to PHA blasts prepared as in vitro activated human T cells in a concentration-dependent manner

Continued, in another order:

binding to cells expressing the construct containing only domain 4 of human LAG-3 [1]: none of them bound
binding to cells expressing the construct containing domains 3 and 4 of human LAG-3 [3]: bound
B1: rLA225: anti-human LAG-3 rat monoclonal antibody; heavy chain variable region SEQ ID No: 10, light chain variable region SEQ ID No: 12 (antibody, listed as Rattus norvegicus, V domains shown)
VH: EVQLVESGGGLVQPGRSMKLSCVASGFTFSNYYMAWVRQAPTKGLEWVASISTGGGNTYYRDSVKGRFTISRDNAKSTLYLQMDSLRSEDTATYYCARPPYGYNYGWFTYWGQGTLVTVSS
VL: DIQMTQSPASLSASLGETVTIECRASEDIHNGLVWYQQKPGKSPQLLIYNANSMHTGVPSRFSGSGSGTQYSLKINSLQSEDVASYFCQQYYNYPRTFGGGTKLELKRA
immunoglobulin-like domain of LAG-3 bound (epitope) [2]: domain 3
binding to activated human T cells (PHA blasts) [4]: bound to PHA blasts prepared as in vitro activated human T cells in a concentration-dependent manner

binding to cells expressing the construct containing only domain 4 of human LAG-3 [1]: none of them bound
binding to cells expressing the construct containing domains 3 and 4 of human LAG-3 [3]: bound
B2: rLA212: anti-human LAG-3 rat monoclonal antibody; heavy chain variable region SEQ ID No: 6, light chain variable region SEQ ID No: 8 (antibody, listed as Rattus norvegicus, V domains shown)
VH: EVQLVESGGGLVQPGRSLKLSCAASGFTYRSYVMAWVRQAPTRGLEWVASISTGGGNTYYRDSVKGRFTISRDNAKNTLYLQMDSLRSEDTATYYCAEDMSNSGYGLFDYWGQGVMVTVSS
VL: NIVMTQSPKSMSISVGDRVTMNCKAGQNVDNNIAWYQKKPGQSPKLLIYYASNRNTGVPDRFTGGGYGTDFTLTINSVQAEDAAFYYCQRISNSPYTFGAGTELELKRA
immunoglobulin-like domain of LAG-3 bound (epitope) [2]: domain 3
binding to activated human T cells (PHA blasts) [4]: bound to PHA blasts prepared as in vitro activated human T cells in a concentration-dependent manner

binding to cells expressing the construct containing only domain 4 of human LAG-3 [1]: none of them bound
binding to cells expressing the construct containing domains 3 and 4 of human LAG-3 [3]: bound
B5: rLA204: anti-human LAG-3 rat monoclonal antibody; heavy chain variable region SEQ ID No: 2, light chain variable region SEQ ID No: 4 (antibody, listed as Rattus norvegicus, V domains shown)
VH: EVELVESGGGLVQPGRSMKLSCAASGFTFRTYGMAWVRQAPTKGLEWVASISTGGGSTYYRDSVKGRFTISRDNAKSTLYLQMDSLRSEDTATYYCTTDLINYPGIGGFAFWGQGTLVTVSS
VL: NIVMTQSPKSMSISVGDRVTMNCKASQNVYNNIAWYQQKPGKSPKLLIYYASNRYTGVPDRFTGSGSGTDFTLTIHSVQAEDAAFYYCQRLYNSPPTFGGGTKLELKRA
immunoglobulin-like domain of LAG-3 bound (epitope) [2]: domain 3
binding to activated human T cells (PHA blasts) [4]: bound to PHA blasts prepared as in vitro activated human T cells in a concentration-dependent manner
